Data: article PMC6329974 (Proceedings of the National Academy of Sciences of the …, 2018)
Each block holds one binder with its values, some of them ahead of it.

B1: proteasome-activating nucleotidase (PAN) from Archaeoglobus fulgidus (enzyme, UniProt O28303 1-398, looked up)
chain: MGDSEIQYLLEKLKKLEEDYYKLRELYRRLEDEKKFIESERIRYEREVRRLRSEVERLRSPPLLVGVVSDILEDGRVVVKSSTGPKFVVNTSQYINEEELKPGARVALNQQTLAIVNVLPTSKDPMVYGFEVEEKPEVSYEDIGGLDVQIEEIREAVELPLLKPELFAEVGIEPPKGVLLYGPPGTGKTLLAKAVANQTRATFIRVVGSEFVQKYIGEGARLVREVFQLAKEKAPSIIFIDELDAIAARRTNSDTSGDREVQRTMMQLLAELDGFDPRGDVKVIGATNRIDILDPAILRPGRFDRIIEVPLPTFEGRIQIFKIHTRKMKLAEDVDFKELARITEGASGADIKAICTEAGMFAIREERAKVTMLDFTKAIEKVLKKTTPIPDLKGVMFV
B2: CP α-subunit from Archaeoglobus fulgidus (natural protein, UniProt O29760 1-246, looked up)
chain: MHLPQMGYDRAITVFSPDGRLFQVEYAREAVKRGATAIGIKCKEGVILIADKRVGSKLLEADTIEKIYKIDEHICAATSGLVADARVLIDRARIEAQINRLTYDEPITVKELAKKICDFKQQYTQYGGVRPFGVSLLIAGVDEVPKLYETDPSGALLEYKATAIGMGRNAVTEFFEKEYRDDLSFDDAMVLGLVAMGLSIESELVPENIEVGYVKVDDRTFKEVSPEELKPYVERANERIRELLKK

Columns and labels:
Experiment in all cases: cryo-EM structure
cryo-EM structure [1] = biological target: the molecule itself
[2] = biological target: B1
[3] = biological target: B2
cryo-EM structure [4] = biological target: the molecule itself; remark: listed apart in the source

Binder: B1
stoichiometry N (cryo-EM structure [1]): 6

Binder: B2
binding result [2]: binds

binding result [3]: binds
B3: CP β-subunit from Archaeoglobus fulgidus (natural protein, UniProt Q9P996 12-213, looked up)
chain: TTTVGLVCKDGVVMATEKRATMGNFIASKAAKKIYQIADRMAMTTAGSVGDAQFLARIIKIEANLYEIRRERKPTVRAIATLTSNLLNSYRYFPYLVQLLIGGIDSEGKSIYSIDPIGGAIEEKDIVATGSGSLTAYGVLEDRFTPEIGVDEAVELAVRAIYSAMKRDSASGDGIDVVKITEDEFYQYSPEEVEQILAKFRK
binding result (cryo-EM structure [4]): binds
